Measured values taken from patent publication US20250177548A1, “FUSOGENIC PEPTIDE COMPOSITIONS AND METHODS OF CARGO DELIVERY” (CLEMSON UNIVERSITY, priority 2022, published 2025).
Non-standard residues stand in square brackets, D forms with d. Primed or numbered codes have the meaning given here. No end group written: not given here. pG″ = pyro form of the N-terminal glycine (pyroglycine); pG = not defined here

T1: luteinizing hormone releasing hormone (LHRH) receptor (UniProt P30968 1-328, limits assumed)
T1 sequence (looked up): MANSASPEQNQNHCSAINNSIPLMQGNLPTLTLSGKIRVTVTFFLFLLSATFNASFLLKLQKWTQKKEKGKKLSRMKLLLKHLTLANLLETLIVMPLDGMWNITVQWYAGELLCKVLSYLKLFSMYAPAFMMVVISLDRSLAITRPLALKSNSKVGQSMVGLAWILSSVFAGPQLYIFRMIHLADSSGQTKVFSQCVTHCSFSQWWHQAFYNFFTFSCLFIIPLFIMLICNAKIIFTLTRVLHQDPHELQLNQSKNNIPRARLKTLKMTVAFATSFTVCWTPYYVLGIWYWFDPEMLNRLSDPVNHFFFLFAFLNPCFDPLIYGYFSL


Columns and labels:
[1] = gel assay of siRNA protection from degradation in 50% serum; assay type: in vitro ADME; conditions: 50% FBS, 1 hour, several N:P ratios
Experimental: (§1) Gel Shift Assays. DIVA3, DIV3H, and DIV3W (all three denoted as DIV3 (X)) peptides suspended in RNase-free water (10 μM), were thawed, and kept on ice prior to complexation with 10 μM of negative control siGENOME non-targeting siRNA #5 (siNT, GE Healthcare Dharmacon, Lafayette, CO) in RNase-free water and incubated for 20 minutes at room temperature to allow the formation of DIV3 (X)-siNT complexes. Various molar ratios of peptides were complexed with siNT at increasing N:P molar ratios to determine the minimum molar ratio necessary to completely complex free siRNAs using an electrophoretic mobility shift assay. To determine the ability of each peptide variant to protect siRNAs from degradation, DIV3 (X)-siNT complexes or siNT alone was left untreated or incubated with either 50% v/v FBS or 5 μg/mL RNase A at 37° C. for one hour. Next, complexes were dissociated using 6% sodium dodecyl sulfate (SDS). Samples were added to a 2% agarose gel and run at 100 V. Gels were stained with ethidium bromide, destained with Milli-Q water, and imaged using a ChemiDoc XRS imager (Bio-Rad, Hercules, CA).
(§2) Characterization of Nanoparticle Size and Stability. To determine the minimum molar ratio necessary to completely complex free siRNAs, increasing N:P molar ratios of LHRH, DIV3W, and LHRH-DIV3W peptide were complexed with siRNAs and electrophoresed using a electrophoretic mobility shift assay. Molar ratios, shown as N:P, are representations of the molar amine peptide content in relation to 1 mole of phosphate group siRNA content. To determine the ability of the peptides to protect siRNAs from serum- or RNase-mediated degradation, LHRH and LHRH-DIV3W complexes were formed in RNase-free water with siNT at increasing N:P molar ratios and incubated at 37° C., 5% CO2, 50% v/v FBS, 5 μg/mL RNase A, or 50% v/v RNase free water for 1 hour. Peptide/siRNA complexes were dissociated using 6% sodium dodecyl sulfate (SDS) prior to electrophoresis in a 2% agarose gel run at 100 V. Gels were stained with ethidium bromide, washed with Milli-Q water, and imaged with a BioRad ChemiDoc XRS imager (BioRad, Hercules, CA).
(§3) Peptides VA-LD and GF-LD, comprising the cleavable linker VA or GLFG, respectively, between the LHRH target sequence and the DIV3W peptide, and non targeting siRNA were electrostatically complexed at increasing N:P ratios then subjected to agarose gel electrophoresis to determine optimal siRNA binding for each peptide. […] Peptide-siRNA nanocomplexes at increasing N:P ratios for peptides for VA-LD (FIG. 30A) and GF-LD (FIG. 30C) were incubated in either Rnase A enzyme or in 50% fetal bovine serum (FBS) for 1 h, dissociated using SDS then subjected to gel electrophoresis to visualize siRNA bands. Gels showing increasing N:P ratios of peptide:siRNA for VA-LD (FIG. 30B) and GF-LD (FIG. 30D) from 20:1 to 80:1 N:P; white bands are indicative of intact siRNA

RNase A = experiment: gel assay of siRNA protection from RNase A degradation; assay type: in vitro ADME; conditions: 1 hour, several N:P ratios
Experimental: as §1, §2, §3

[2] = dynamic light scattering, size and zeta potential of peptide/siRNA complexes; assay type: physicochemical; conditions: for zeta potential: DIV3 (X) peptide/siRNA complexes
Experimental: Dynamic Light Scattering and Transmission Electron Microscopy. DIV3 (X)-siNT complexes were prepared at 2 mg/mL in RNase-free water. Hydrodynamic size and surface charge of the peptide/siRNA complexes were determined using a Nano ZS Zetasizer (Malvern Pananalytical, Malvern, UK). All data were recorded using Malvern's Zetasizer software.
To determine nanoparticle size and zeta potential, peptides resuspended in RNase-free water (10 μM) were thawed and kept on ice prior to complexation with 10 μM of siNT in RNase-free water and incubated for 20 minutes at room temperature to form DIV3W-siNT and LHRH-DIV3W-siNT complexes. Peptide complexes were prepared at 2 mg/mL in RNase-free water. Hydrodynamic size and surface charge analysis was conducted using a Malvern Nano ZS Zetasizer (Malvern Panalytical, Malvern, UK). All data was analyzed using Malvern's Zetasizer software.

OVCAR3 cells [3] = experiment: cellular uptake of labeled siRNA by flow cytometry; assay type: cell-based; conditions: for uptake efficiency: OVCAR3, siNT-DY547, 4 hours; for uptake efficiency, tandem vs LHRH peptide: FIG. 10E, 4 hr, cell line not stated
Experimental: Cellular Uptake. OVCAR3 and CAOV3 cells were prepared at 50,000 cells per well in a 24-well plate. […] Post-incubation, media was aspirated and cells were washed with 1× PBS. To counterstain the nuclei, SuperSignal NucBlue Hoechst stain (Thermo Fisher, Waltham, MA) was added to the cells for 30 minutes, followed by an additional 1×PBS wash. Subsequent imaging was performed using an EVOS FL Microscope (Thermo Fisher) at 10× magnification. For flow cytometric analysis, cells were detached, resuspended in 1× PBS, and analyzed using an Attune NXT Acoustic flow cytometer (Invitrogen, Carlsbad, CA) with the blue laser line and BL2 (574/26 nm) channel.
Cellular Uptake and Targeting Specificity. Observation of cell uptake was performed by seeding OVCAR3 and CAOV3 cells at a density of 50,000 cells per well in a 24-well plate. LHRH and LHRH-DIV3W peptides were complexed with […] as previously described and delivered to cells at 20:1 to 80:1 N:P ratios. Each cell line was incubated with tandem peptide complexes for both 4- and 24-hour treatment periods. Following incubation, cell media was removed, and cells were washed with 1× PBS prior to the addition of 500 μL of 1×PBS and SuperSignal NucBlue Hoescht 33342 nuclear stain (Thermo Fisher, Waltham, MA). Cellular imaging was completed using an EVOS FL Microscope (Thermo Fisher) at 10×, 20×, and 40× magnification. Flow cytometry was completed after cell imaging and cells were trypsinized, resuspended in 1×PBS, and analyzed with an Attune NXT Acoustic Flow Cytometer (Invitrogen) with the red laser line and RL2 […] channel.

CSNK2A1 mRNA = experiment: qPCR of CSNK2A1 mRNA in OVCAR3 cells; assay type: cell-based; conditions: OVCAR3, 48 hours
Experimental: qRT-PCR. Cells were seeded at 50,000 cells per well and treated with siRNA targeting CSNK2A1 (siCSNK2A1 #s3638, Thermo Fisher Scientific) at increasing N:P ratios and incubated for a total of 48 hours in McCoys 5A/DMEM-10% FBS. Treated cells were washed with 1×PBS at 24 hours and fresh media was added. RNAisolation was completed using a Qiagen Mini-RNeasy Kit (Qiagen, Hilden, Germany) according to the manufacturer's protocol. RNA isolation quality and quantity were measured through the Gen5 protocol using a Take3 plate (BioTek). RNA was reverse-transcribed using the QuantiTect Reverse Transcription kit (Qiagen). Quantitative real-time PCR was completed with a QuantStudio 3 qPCR system (Applied Biosystems) using Applied Biosystems TaqMan FAST Master Mix (Thermo Fisher) and CSNK2A1 (ID #Hs00751002_s1) and 18S (ID #Hs99999901_s1) predesigned TaqMan probes, according to the manufacturer's protocol.
Gene and Protein Knockdown. Bioactivity of siRNAs was determined via qPCR and western blot analysis. OVCAR3 or CAOV3 cells were seeded at 50,000 cells per well as previously described and treated with siRNA targeting CSNK2A1 and siNT at N:P ratios 30:1, 40:1, 50:1, 60:1, and 70:1. LHRH-DIV3W peptide complexed with either siNT or siCSNK2A1 was incubated for a total of 48 hours in RPMI 1640/DMEM-10% FBS, with one media exchange occurring after the 24-hour timepoint. Treated cells were washed with 1×PBS at 24 hours and fresh media was added. RNA isolation was completed using a Qiagen Mini-RNeasy Kit (Qiagen, Hilden, Germany) according to the manufacturer's protocol. RNA isolation quality and quantity was measured through the Gen5 protocol using a Take3 plate (BioTek). RNA was reverse transcribed using the QuantiTect Reverse Transcription kit (Qiagen) according to the manufacturer's protocol. Quantitative real-time PCR was completed with a QuantStudio 3 qPCR system (Applied Biosystems, Waltham, MA) using Applied Biosystems TaqMan FAST Master Mix (Thermo Fisher) and CSNK2A1 (ID #Hs00751002_s1) and 18S (ID #Hs99999901_s1) predesigned TaqMan probes according to the manufacturer's protocol.

OVCAR3 cells [4] = system: OVCAR3 cells
Experimental: (§4) Cells were seeded at 10,000 cells per well with complete culture media in a 96-well plate and incubated overnight to allow the cells to attach. DIV3 (X) peptides were complexed with siNT at 40:1 to 80:1 N:P molar ratios. DIV3 (X)-siNT complexes were incubated with OVCAR3 or CAOV3 cells at a final concentration of 100 nM siRNA and 10% FBS for 24 hours. Media was then aspirated, cells were washed with 1× phosphate-buffered saline (PBS), and fresh media with 10% FBS was added to each well and incubated another 24 hours.
Viability was measured using an MTS Assay performed with CellTiter 96 AQueous One Solution Cell Proliferation Assay (Promega, Madison, WI). Assay reagent was added according to the manufacturer's protocol, and cells were incubated for 4 hours. Absorbance was read using a BioTek Synergy LX (BioTek, Winooksi, VT) plate reader at 490 nm. An MTS cell viability assay was also conducted as described for OVCAR3 and CAOV3 cells treated with DIV3W-siRNA complexes.
OVCAR3 or CAOV3 cells were seeded at 10,000 cells per well with complete culture media in a transparent 96-well plate and incubated overnight to allow the cells to attach. LHRH and LHRH-DIV3W peptides were delivered to cells without siRNA cargo. After 24 hours of incubation the media was exchanged and after another 24-hour incubation at 37° C. in 5% CO2, viability was measured using an MTS Assay performed with the CellTiter 96 AQueous One Solution Assay (Promega, Madison, WI). Assay reagent was added according to the manufacturer's protocol and cells were incubated for 4 hours. Absorbance was read using a BioTek Synergy LX (BioTek, Winooksi, VT) plate reader at 490 nm.

ES2 ovarian cancer cells [5] = experiment: cellular uptake of cy5 siRNA, microscopy and flow cytometry; assay type: cell-based, human; conditions: ES2, 4 hours, N:P ratios of 20:1-40:1
Experimental: Peptides, VA-LD and GF-LD, and cy5 labeled non targeting siRNA were electrostatically complexed at increasing N:P ratios and delivered to human ovarian ES2 cells for 4 hours.

ES2 ovarian cancer cells [6] = system: ES2 ovarian cancer cells
Experimental: VA-LD and GF-LD peptides were electrostatically complexed with and non targeting siRNA at increasing N:P ratios. Complexes were delivered to human ovarian ES2 cells for 48 hours and analyzed via MTS assay.

[7] = target: T1, luteinizing hormone releasing hormone …; experiment: cell-based or functional assay

Experimental for CAOV3 cells: as §4
Viability was measured using an MTS Assay performed with CellTiter 96 AQueous One Solution Cell Proliferation Assay (Promega, Madison, WI). Assay reagent was added according to the manufacturer's protocol, and cells were incubated for 4 hours. Absorbance was read using a BioTek Synergy LX (BioTek, Winooksi, VT) plate reader at 490 nm. […]
OVCAR3 or CAOV3 cells were seeded at 10,000 cells per well with complete culture media in a transparent 96-well plate and incubated overnight to allow the cells to attach. […] After 24 hours of incubation the media was exchanged and after another 24-hour incubation at 37° C. in 5% CO2, viability was measured using an MTS Assay performed with the CellTiter 96 AQueous One Solution Assay (Promega, Madison, WI). […] Absorbance was read using a BioTek Synergy LX (BioTek, Winooksi, VT) plate reader at 490 nm.

| Molecule | intact siRNA after incubation in 50% serum [1] | intact siRNA after incubation with RNase A (RNase A) | zeta potential [2] | uptake efficiency (OVCAR3 cells [3]; 80:1) | delivery of cy5 siRNA (ES2 ovarian cancer cells [5]) | biocompatibility of peptide/non-targeting siRNA complexes (ES2 ovarian cancer cells [6]) | other results |
| --- | --- | --- | --- | --- | --- | --- | --- |
| WEADIVADIVADIVAGGG-(d) RRRRRRRRR (WEADIVADIVADIVAGGG[dR][dR][dR][dR][dR][dR][dR][dR][dR]) [DIVA3] | Reduction of intact siRNA signal | Reduction of intact siRNA signal | ~20 mV | 63.6% | – | – | CSNK2A1 mRNA silencing (knockdown) (CSNK2A1 mRNA; 60:1, vs siNT complex): 47% |
| WEADIVADIVHDIVADIVAGGG-(d) RRRRRRRRR (WEADIVADIVHDIVADIVAGGG[dR][dR][dR][dR][dR][dR][dR][dR][dR]) [DIV3H] | Reduction of intact siRNA signal | – | ~30 mV | 52.1% | – | – | hydrodynamic diameter ([2]; DIV3 (X) peptide/siRNA complex at 60:1 ratio): around 100 nm; CSNK2A1 mRNA silencing (knockdown) (CSNK2A1 mRNA; 80:1, vs siNT complex): 72% |
| pGHWSY-(d) L-LRP ([pG]HWSY[dL]LRP; reading uncertain) [LHRH, reference compound] | – | – | – | – | – | – | uptake efficiency, tandem vs LHRH peptide (OVCAR3 cells [3]; 40:1): 34.3%±0.56%; uptake efficiency, tandem vs LHRH peptide (OVCAR3 cells [3]; 60:1): 34.83%±2.75%; uptake efficiency, tandem vs LHRH peptide (OVCAR3 cells [3]; 80:1): 33.87%±1.63%; cytotoxicity of peptide alone (OVCAR3 cells [4]): biocompatibility; cytotoxicity of peptide alone (CAOV3 cells): biocompatibility |
| pGHWSY-LLRPGGGGFLGWEADIVADIVWDIVADIVAGGG-RRRRRRRRR ([pG]HWSY[dL]LRPGGGGFLGWEADIVADIVWDIVADIVAGGG[dR][dR][dR][dR][dR][dR][dR][dR][dR]; reading uncertain) [GF-LD] | protect siRNA in physiologically relevant environments | protect siRNA in physiologically relevant environments | – | – | deliver siRNA to ES2 ovarian cancer cells | biocompatible | – |
| pGHWSY-LLRPGGGVAWEADIVADIVWDIVADIVAGGG-RRRRRRRRR ([pG]HWSY[dL]LRPGGGVAWEADIVADIVWDIVADIVAGGG[dR][dR][dR][dR][dR][dR][dR][dR][dR]; reading uncertain) [VA-LD] | protect siRNA in physiologically relevant environments | protect siRNA in physiologically relevant environments | – | – | deliver siRNA to ES2 ovarian cancer cells | biocompatible | – |
| [pG″]HWSY[dL]LRPGGGGGWEADIVADIVWDIVADIVAGGG[dR][dR][dR][dR][dR][dR][dR][dR][dR] [LHRH-DIV3W tandem peptide] | – | – | – | – | – | – | cell viability (MTS), OVCAR3 cells, peptide without siRNA at the 20:1 ratio [7]: 110% |
